In paper PMC10713844, “Characterization of the enzyme kinetics of EMP and HMP pathway in Corynebacterium glutamicum: reference for modeling metabolic networks” (Frontiers in Bioengineering and Biotechnology, 2023) one finds Km, Vmax and kcat data, which are given here for eight proteins.

Holding throughout (test): initial-rate kinetics, Michaelis-Menten fit
Holding throughout (format): biochemical, Corynebacterium glutamicum
Details in all cases: PBS with 0.5 mM MgCl2, pH 7.4, 37 °C

Substrate in data set [1]: O=C(CO)COP(=O)(O)O
The source says:
initial-rate kinetics, Michaelis-Menten fit on TPI (triosephosphate isomerase)

Substrate in data set [2]: O=C[C@H](O)COP(=O)(O)O
The text has this: initial-rate kinetics, Michaelis-Menten fit on TAL (transaldolase)

Substrate in data set [3]: O=C(O)[C@@H](CO)OP(=O)(O)O
The text has this: initial-rate kinetics, Michaelis-Menten fit on ENO (enolase; ENO-Y)

Substrate in data set [4]: O=C(CO)[C@H](O)[C@H](O)COP(=O)(O)O
The source says: initial-rate kinetics, Michaelis-Menten fit on RPI (ribose-5-phosphate isomerase)

Substrate in data set [5]: O=C[C@H](O)COP(=O)(O)O
The text has this: initial-rate kinetics, Michaelis-Menten fit on GAPDH (glyceraldehyde 3-phosphate dehydrogenase)
The source holds these as a separate data set.

Substrate in data set [6]: O=C(CO)[C@H](O)[C@H](O)COP(=O)(O)O
The source says: initial-rate kinetics, Michaelis-Menten fit on RPE (ribulose-5-phosphate 3-epimerase)
The source holds these as a separate data set.

Substrate in data set [7]: O=C(O)[C@H](O)COP(=O)(O)O
The source says: initial-rate kinetics, Michaelis-Menten fit on PGMA / PMGA / pgma (phosphoglycerate mutase)

Substrate in data set [8]: Nc1ncnc2c1ncn2[C@@H]1O[C@H](COP(=O)(O)OP(=O)(O)OP(=O)(O)O)[C@@H](O)[C@H]1O
The source says: initial-rate kinetics, Michaelis-Menten fit on GLK (glucokinase)

B1: TPI (triosephosphate isomerase) (Corynebacterium glutamicum ATCC 13032) (protein)
chain: MARKPLIAGNWKMNLDHQQAIGTVQKLAFALPKEYFEKVDVAVTVPFTDIRSVQTLVEGDKLEVTFGAQDVSQHESGAYTGEVSASMLAKLNCSWVVVGHSERREYHNESDELVAAKAKAALSNGISPIVCVGEPLEIREAGTHVEYVVEQTRKSLAGLDAAELANTVIAYEPVWAIGTGKVASAADAQEVCKAIRGLIVELAGDEVAEGLRILYGGSVKAETVAEIVGQPDVDGGLVGGASLDGEAFAKLAANAASVA
On to B1, for which, in data set [1], the Km stood at 5430 ± 160 µM, the Vmax came out at 160 µmol/min/mg and the kcat was found to be 75.7 ± 2.11 s⁻¹.

B2: TAL (transaldolase) (Corynebacterium glutamicum ATCC 13032) (protein)
chain: MSHIDDLAQLGTSTWLDDLSRERITSGNLSQVIEEKSVVGVTTNPAIFAAAMSKGDSYDAQIAELKAAGASVDQAVYAMSIDDVRNACDLFTGIFESSNGYDGRVSIEVDPRISADRDATLAQAKELWAKVDRPNVMIKIPATPGSLPAITDALAEGISVNVTLIFSVARYREVIAAFIEGIKQAAANGHDVSKIHSVASFFVSRVDVEIDKRLEAIGSDEALALRGKAGVANAQRAYAVYKELFDAAELPEGANTQRPLWASTGVKNPAYAATLYVSELAGPNTVNTMPEGTIDAVLEQGNLHGDTLSNSAAEADAVFSQLEALGVDLADVFQVLETEGVDKFVASWSELLESMEARLK
Consider B2, for which, in data set [2], the Km was 290 ± 80 µM, the Vmax was 6.44 µmol/min/mg and the kcat came to 4.24 ± 0.47 s⁻¹.

B3: ENO (enolase; ENO-Y) (Corynebacterium glutamicum ATCC 13032) (protein)
chain: MAEIMHVFAREILDSRGNPTVEAEVFLDDGSHGVAGVPSGASTGVHEAHELRDGGDRYLGKGVLKAVENVNEEIGDELAGLEADDQRLIDEAMIKLDGTANKSRLGANAILGVSMAVAKAAADSAGLPLFRYIGGPNAHVLPVPMMNIINGGAHADSGVDVQEFMIAPIGAETFSEALRNGAEVYHALKSVIKEKGLSTGLGDEGGFAPSVGSTREALDLIVEAIEKAGFTPGKDIALALDVASSEFFKDGTYHFEGGQHSAAEMANVYAELVDAYPIVSIEDPLQEDDWEGYTNLTATIGDKVQIVGDDFFVTNPERLKEGIAKKAANSILVKVNQIGTLTETFDAVDMAHRAGYTSMMSHRSGETEDTTIADLAVALNCGQIKTGAPARSDRVAKYNQLLRIEQLLGDAGVYAGRSAFPRFQG
With B3, the Km in data set [3] was determined as 60 ± 10 µM.

B4: RPI (ribose-5-phosphate isomerase) (Corynebacterium glutamicum ATCC 13032) (protein)
chain: MRVYLGADHAGFETKNAIAEHLKAHGHEVIDCGAHTYDAEDDYPAFCIEAASRTVNDPGSLGIVLGGSGNGEQIAANKVKGARCALAWSVETARLAREHNNANLIGIGGRMHSEEEALAIVDAFLEQEWSNAERHQRRIDILADYERTGIAPVVPNE
With B4, in data set [4], the Km is 420 ± 60 µM, the Vmax turned out to be 11.2 µmol/min/mg and the kcat was found to be 3.39 ± 0.22 s⁻¹.

B5: GAPDH (glyceraldehyde 3-phosphate dehydrogenase) (Corynebacterium glutamicum ATCC 13032) (protein)
chain: MTIRVGINGFGRIGRNFFRAVLERSDDLEVVAVNDLTDNKTLSTLLKFDSIMGRLGQEVEYDDDSITVGGKRIAVYAERDPKNLDWAAHNVDIVIESTGFFTDANAAKAHIEAGAKKVIISAPASNEDATFVYGVNHESYDPENHNVISGASCTTNCLAPMAKVLNDKFGIENGLMTTVHAYTGDQRLHDAPHRDLRRARAAAVNIVPTSTGAAKAVALVLPELKGKLDGYALRVPVITGSATDLTFNTKSEVTVESINAAIKEAAVGEFGETLAYSEEPLVSTDIVHDSHGSIFDAGLTKVSGNTVKVVSWYDNEWGYTCQLLRLTELVASKL
With B5, in data set [5], the Km amounted to 1470 ± 110 µM, the Vmax was 15.7 µmol/min/mg and the kcat is 9.71 ± 0.36 s⁻¹.

B6: RPE (ribulose-5-phosphate 3-epimerase) (Corynebacterium glutamicum ATCC 13032) (protein)
chain: MAQRTPLIAPSILAADFSRLGEQVLAVPDADWIHVDIMDGHFVPNLSFGADITAAVNRVTDKELDVHLMIENPEKWVDNYIDAGADCIVFHVEATEGHVELAKYIRSKGVRAGFSLRPGTPIEDYLDDLEHFDEVIVMSVEPGFGGQSFMPEQLEKVRTLRKVIDERGLNTVIEIDGGISAKTIKQAADAGVDAFVAGSAVYGAEDPNKAIQELRALAQ
As for B6, in data set [6], the Michaelis-Menten constant (Km) stood at 2810 ± 1250 µM, the Vmax was found to be 430 µmol/min/mg and the kcat came to 179 ± 22.2 s⁻¹.

B7: PGMA / PMGA / pgma (phosphoglycerate mutase) (Corynebacterium glutamicum ATCC 13032) (protein)
chain: MTNGKLILLRHGQSEWNASNQFTGWVDVNLTEQGEAEAKRGGELLVEAGVLPGVVYTSLLRRAIRTANIALNAADRHWIPVIRDWRLNERHYGALQGLDKAATKEKYGDDQFMEWRRSYDTPPPELADDAEYSQANDPRYADLDVVPRTECLKDVVVRFVPYFEEEILPRAKKGETVLIAAHGNSLRALVKHLDGISDADIAELNIPTGIPLVYEIAEDGSVVNPGGTYLDPEAAAAGAAAVANQGNK
In the case of B7, in data set [7], the Km was 4440 ± 320 µM, the Vmax was found to be 43.2 µmol/min/mg and the kcat was found to be 20.4 ± 1.05 s⁻¹.

B8: GLK (glucokinase) (Corynebacterium glutamicum ATCC 13032) (protein)
chain: MPQKPASFAVGFDIGGTNMRAGLVDESGRIVTSLSAPSPRTTQAMEQGIFDLVEQLKAEYPVGAVGLAVAGFLDPECEVVRFAPHLPWRDEPVREKLENLLGLPVRLEHDANSAAWGEHRFGAAQGADNWVLLALGTGIGAALIEKGEIYRGAYGTAPEFGHLRVVRGGRACACGKEGCLERYCSGTALVYTARELASHGSFRNSGLFDKIKADPNSINGKTITAAARQEDPLALAVLEDFSEWLGETLAIIADVLDPGMIIIGGGLSNAADLYLDRSVNHYSTRIVGAGYRPLARVATAQLGADAGMIGVADLARRSVVEAN
Turning to B8, in data set [8], the Km turned out to be 810 ± 80 µM, the Vmax is 37.7 µmol/min/mg and the catalytic constant (kcat) is 22.2 ± 1.07 s⁻¹.

By Km is commonly meant the substrate concentration at which the rate is half of its maximum. What is called Vmax is the top rate of the reaction or transport when substrate is in excess. What is called kcat is the number of substrate molecules converted per active site and unit of time at saturation.
